Reference: publication PMC5458804 (Nature cell biology, 2017)
Changes are numbered by the printed parent chain. Names and notes keep the numbering of the source.

Key:
[1] = biological target: p60N/p80C heterodimer (mouse) (UniProt Q9WV86); test: crystal structure
[2] = biological target: p60N/p80C heterodimer (mouse) (UniProt Q9WV86); test: AUC
[3] = biological target: p80C (C-terminal domain of katanin p80) (mouse, UniProt Q8BG40 481-658); test: AUC
p80C-R615A = p80C-R615A (mouse, UniProt Q8BG40 481-658, R615A); test: AUC
p80C-Y574A = p80C-Y574A (mouse, UniProt Q8BG40 481-658, Y574A); test: AUC
p80C-S538L = p80C-S538L (mouse, UniProt Q8BG40 481-658, S538L); test: AUC
Sequence of p80C-S538L (Q8BG40 481-658 S538L): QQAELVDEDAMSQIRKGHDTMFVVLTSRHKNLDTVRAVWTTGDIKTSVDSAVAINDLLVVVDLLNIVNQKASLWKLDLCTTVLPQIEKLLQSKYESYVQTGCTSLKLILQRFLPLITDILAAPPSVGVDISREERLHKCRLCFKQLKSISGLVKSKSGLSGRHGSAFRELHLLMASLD

Sequence of p80C (C-terminal domain of katanin p80) (Q8BG40 481-658): as the sequence (Q8BG40 481-658 S538L) above, with L58S counted along it
Sequence of p80C-Y574A (Q8BG40 481-658 Y574A): as the sequence (Q8BG40 481-658 S538L) above, with L58S, Y94A counted along it
Sequence of p80C-R615A (Q8BG40 481-658 R615A): as the sequence (Q8BG40 481-658 S538L) above, with L58S, R135A counted along it

## ASPMp (peptide corresponding to the third repeat of ASPM, as crystallised)
[1]
  stoichiometry N: 1

## TAMRA-labeled ASPMp peptide
[2]
  Kd: 9 µM

B1: p60N (N-terminal domain of katanin p60) (domain or fragment)
chain: MSLQMIVENVKLAREYALLGNYDSAMVYYQGVLDQMNKYLYSVKDTHLRQKWQQVWQEINVEAKQVKDIMKTLESFKL
[3]
  binding result: binds
p80C-R615A
  binding result: binds
p80C-Y574A
  binding result: binds
p80C-S538L
  binding result: binds

B2: p60N-L19A (domain or fragment)
chain: B1 chain with L19A
[3]
  binding result: binds

B3: p60N-L18A (domain or fragment)
chain: B1 chain with L18A
[3]
  binding result: binds
